From patent publication US20140072613A1, “Compositions and Methods for Treating Cutaneous Scarring” (priority 2012, published 2014) come the findings set out here.

The target in experiment [1] is CaMKIδ(h) (human), Q8IU85. The experiment in a line: cell-based or functional assay.
For experiment [2], the target named is Abl(H8396P)(h) (human), P00519. Kind of experiment: cell-based or functional assay.
The target of experiment [3] is PKG1α(h) (human), Q13976. The experiment in a line: cell-based or functional assay.
Experiment [4] addresses CaMKIIδ(h) (human), Q13557. Kind of experiment: cell-based or functional assay.
Experiment [5] deals with CK1δ(h) (human), P48730. Kind of experiment: cell-based or functional assay.
Experiment [6] has as its target PKCβI(h) (human), P05771. Kind of experiment: cell-based or functional assay.
The target in experiment [7] is Small conductance calcium activated K+ channel. Kind of experiment: Cerep binding assay, competition with a radiolabelled ligand.
Experiment [8] has as its target Melanocortin 4 (off-target receptor) (Homo sapiens (Human)), P32245. Described as above.
In experiment [9] the target is T1, Neurokinin 2 (off-target receptor) (Homo sapiens (Human)), P21452.
T1 chain: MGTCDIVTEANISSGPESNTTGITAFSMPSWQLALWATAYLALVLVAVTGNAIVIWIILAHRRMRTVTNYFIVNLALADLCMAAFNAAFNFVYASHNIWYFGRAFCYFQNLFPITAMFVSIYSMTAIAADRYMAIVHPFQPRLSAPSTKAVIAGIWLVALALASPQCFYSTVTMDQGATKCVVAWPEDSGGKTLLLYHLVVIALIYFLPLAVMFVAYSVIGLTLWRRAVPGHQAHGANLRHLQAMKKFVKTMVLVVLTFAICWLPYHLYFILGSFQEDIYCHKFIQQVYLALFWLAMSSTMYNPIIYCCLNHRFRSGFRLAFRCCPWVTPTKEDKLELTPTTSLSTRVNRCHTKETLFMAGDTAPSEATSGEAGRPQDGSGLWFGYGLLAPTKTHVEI
The description is as above.

Experiment [10] addresses Vasoactive intestinal peptide (off-target receptor). The description is as above.
Experiment [11] concerns the target Angiotensin 2 (off-target receptor). The description is as above.
The target in experiment [12] is Neuropeptide Y (off-target receptor). The experiment is described as above.
Experiment [13] addresses Bombesin (off-target receptor). The description is as above.
For experiment [14], the target named is Serotonin 2A (off-target receptor) (Homo sapiens (Human)), P28223. The experiment is described as above.
Experiment [15] has as its target Fes(h) (human), P07332. Kind of experiment: cell-based or functional assay.
In experiment [16] the target is MAPKAP-K3(h) (human), Q16644. The experiment in a line: cell-based or functional assay.
The target of experiment [17] is LOK(h) (human), O94804. Kind of experiment: cell-based or functional assay.
Experiment [18] concerns the target EGFR(L861Q)(h) (human), P00533. Kind of experiment: cell-based or functional assay.
Experiment [19] deals with T2, FGFR2(h) (human), P21802.
T2 chain: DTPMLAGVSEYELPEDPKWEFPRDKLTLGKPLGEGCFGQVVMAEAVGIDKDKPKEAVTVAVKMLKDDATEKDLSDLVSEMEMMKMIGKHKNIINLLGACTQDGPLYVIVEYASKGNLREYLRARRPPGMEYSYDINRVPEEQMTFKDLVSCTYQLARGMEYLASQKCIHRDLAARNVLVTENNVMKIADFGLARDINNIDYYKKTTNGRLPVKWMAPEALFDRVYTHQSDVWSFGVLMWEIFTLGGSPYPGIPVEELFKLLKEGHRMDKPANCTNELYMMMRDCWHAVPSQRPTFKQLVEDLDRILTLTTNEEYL
The experiment in a line: cell-based or functional assay.

Experiment [20] addresses Pim-1(h) (human), P11309. Kind of experiment: cell-based or functional assay.
The target in experiment [21] is MAPKAP-K2(h) (human), P49137. Kind of experiment: cell-based or functional assay.
Experiment [22] deals with Yes(h) (human), P07947. The experiment in a line: cell-based or functional assay.
The target of experiment [23] is T3, DRAK1(h) (human), Q9UEE5.
T3 chain: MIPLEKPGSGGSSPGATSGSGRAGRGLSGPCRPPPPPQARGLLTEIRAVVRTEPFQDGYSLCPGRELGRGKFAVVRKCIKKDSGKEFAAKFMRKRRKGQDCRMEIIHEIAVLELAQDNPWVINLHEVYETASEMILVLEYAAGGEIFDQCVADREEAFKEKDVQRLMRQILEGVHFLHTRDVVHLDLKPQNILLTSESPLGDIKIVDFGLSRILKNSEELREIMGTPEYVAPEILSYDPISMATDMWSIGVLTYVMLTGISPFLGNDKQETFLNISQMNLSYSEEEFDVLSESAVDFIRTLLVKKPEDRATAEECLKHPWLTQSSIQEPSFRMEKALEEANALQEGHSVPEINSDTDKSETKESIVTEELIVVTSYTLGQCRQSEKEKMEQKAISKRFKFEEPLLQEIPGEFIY
The experiment in a line: cell-based or functional assay.

In experiment [24] the target is T4, EphA2(h) (human), P29317.
T4 chain: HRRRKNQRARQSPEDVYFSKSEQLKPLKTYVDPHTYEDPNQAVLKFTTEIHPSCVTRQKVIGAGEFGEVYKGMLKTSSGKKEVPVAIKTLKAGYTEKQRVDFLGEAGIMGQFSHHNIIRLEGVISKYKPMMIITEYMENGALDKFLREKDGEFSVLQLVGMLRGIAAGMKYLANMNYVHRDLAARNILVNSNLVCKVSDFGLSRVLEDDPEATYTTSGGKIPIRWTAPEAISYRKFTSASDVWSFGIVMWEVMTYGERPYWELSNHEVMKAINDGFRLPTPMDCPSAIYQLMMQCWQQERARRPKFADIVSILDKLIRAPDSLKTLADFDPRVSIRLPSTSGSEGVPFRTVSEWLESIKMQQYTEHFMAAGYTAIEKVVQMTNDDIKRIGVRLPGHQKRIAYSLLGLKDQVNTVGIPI
Kind of experiment: cell-based or functional assay.

Experiment [25] deals with T5, DMPK(h) (human), Q09013.
T5 chain: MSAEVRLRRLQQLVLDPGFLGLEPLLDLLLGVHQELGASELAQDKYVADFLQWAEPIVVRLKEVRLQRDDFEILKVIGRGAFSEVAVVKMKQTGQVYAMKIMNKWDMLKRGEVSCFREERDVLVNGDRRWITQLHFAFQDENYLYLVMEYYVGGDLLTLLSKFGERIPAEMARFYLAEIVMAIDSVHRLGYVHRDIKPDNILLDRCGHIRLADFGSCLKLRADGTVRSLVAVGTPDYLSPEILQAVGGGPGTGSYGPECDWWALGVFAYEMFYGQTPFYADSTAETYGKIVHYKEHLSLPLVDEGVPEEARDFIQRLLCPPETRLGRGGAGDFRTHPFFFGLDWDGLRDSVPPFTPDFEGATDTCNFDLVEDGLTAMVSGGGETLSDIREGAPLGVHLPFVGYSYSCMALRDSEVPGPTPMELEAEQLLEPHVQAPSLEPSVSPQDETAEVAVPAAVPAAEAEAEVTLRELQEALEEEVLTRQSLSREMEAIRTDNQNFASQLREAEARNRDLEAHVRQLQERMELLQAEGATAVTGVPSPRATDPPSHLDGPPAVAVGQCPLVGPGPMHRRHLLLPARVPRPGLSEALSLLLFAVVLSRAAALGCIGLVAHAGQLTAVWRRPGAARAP
The experiment in a line: cell-based or functional assay.

In experiment [26] the target is MSK1(h) (human), O75582. The experiment in a line: cell-based or functional assay.
In experiment [27] the target is Fgr(h) (human), P09769. The experiment in a line: cell-based or functional assay.
In experiment [28] the target is CaMKI(h) (human), Q14012. The experiment in a line: cell-based or functional assay.
Experiment [29] concerns the target TrkB(h) (human), Q16620. The experiment in a line: cell-based or functional assay.

Sequence of CaMKIδ(h) (human), Q8IU85 (Q8IU85 whole entry, stated change not applied): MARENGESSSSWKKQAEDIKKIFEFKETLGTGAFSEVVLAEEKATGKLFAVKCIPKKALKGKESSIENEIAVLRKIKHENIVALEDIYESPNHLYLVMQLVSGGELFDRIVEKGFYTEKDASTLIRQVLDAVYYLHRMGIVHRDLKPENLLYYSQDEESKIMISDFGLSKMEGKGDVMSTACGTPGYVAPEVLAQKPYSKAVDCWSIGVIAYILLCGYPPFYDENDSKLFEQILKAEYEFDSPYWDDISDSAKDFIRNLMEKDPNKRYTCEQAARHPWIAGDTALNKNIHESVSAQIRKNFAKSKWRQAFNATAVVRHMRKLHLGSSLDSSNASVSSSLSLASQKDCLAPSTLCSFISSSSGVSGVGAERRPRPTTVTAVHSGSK
Sequence of CaMKIIδ(h) (human), Q13557 (Q13557 whole entry, stated change not applied): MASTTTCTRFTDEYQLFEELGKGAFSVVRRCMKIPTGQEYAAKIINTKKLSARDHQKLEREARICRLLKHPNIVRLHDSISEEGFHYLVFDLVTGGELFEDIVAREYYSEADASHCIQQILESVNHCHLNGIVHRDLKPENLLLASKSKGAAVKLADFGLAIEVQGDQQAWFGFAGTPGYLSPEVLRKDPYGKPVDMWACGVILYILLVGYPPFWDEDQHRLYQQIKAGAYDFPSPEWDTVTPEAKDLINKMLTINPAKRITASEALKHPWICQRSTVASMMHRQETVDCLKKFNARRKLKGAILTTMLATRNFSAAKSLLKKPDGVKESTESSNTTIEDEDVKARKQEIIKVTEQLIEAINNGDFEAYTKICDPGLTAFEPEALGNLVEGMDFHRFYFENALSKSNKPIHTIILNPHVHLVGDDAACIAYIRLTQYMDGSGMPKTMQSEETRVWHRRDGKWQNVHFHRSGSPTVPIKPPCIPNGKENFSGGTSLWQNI
Sequence of PKG1α(h) (human), Q13976 (Q13976 whole entry): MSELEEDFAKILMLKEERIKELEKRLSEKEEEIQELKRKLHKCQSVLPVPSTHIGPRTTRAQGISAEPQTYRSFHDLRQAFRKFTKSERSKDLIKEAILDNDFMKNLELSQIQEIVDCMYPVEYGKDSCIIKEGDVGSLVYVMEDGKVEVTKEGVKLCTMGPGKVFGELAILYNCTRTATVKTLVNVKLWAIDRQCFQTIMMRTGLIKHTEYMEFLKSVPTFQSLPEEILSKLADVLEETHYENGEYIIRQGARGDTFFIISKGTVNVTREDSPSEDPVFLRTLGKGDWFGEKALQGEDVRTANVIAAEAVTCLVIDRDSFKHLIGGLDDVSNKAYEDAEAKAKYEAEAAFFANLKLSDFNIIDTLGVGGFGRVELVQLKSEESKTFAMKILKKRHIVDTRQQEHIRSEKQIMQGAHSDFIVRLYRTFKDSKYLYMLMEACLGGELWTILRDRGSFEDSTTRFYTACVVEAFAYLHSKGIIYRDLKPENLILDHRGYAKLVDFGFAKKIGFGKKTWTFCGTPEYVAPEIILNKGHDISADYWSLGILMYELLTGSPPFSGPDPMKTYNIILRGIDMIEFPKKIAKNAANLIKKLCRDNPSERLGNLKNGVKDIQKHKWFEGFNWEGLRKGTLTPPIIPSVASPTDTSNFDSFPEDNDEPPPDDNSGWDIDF
Sequence of Abl(H8396P)(h) (human), P00519 (P00519 27-1130, stated change not applied): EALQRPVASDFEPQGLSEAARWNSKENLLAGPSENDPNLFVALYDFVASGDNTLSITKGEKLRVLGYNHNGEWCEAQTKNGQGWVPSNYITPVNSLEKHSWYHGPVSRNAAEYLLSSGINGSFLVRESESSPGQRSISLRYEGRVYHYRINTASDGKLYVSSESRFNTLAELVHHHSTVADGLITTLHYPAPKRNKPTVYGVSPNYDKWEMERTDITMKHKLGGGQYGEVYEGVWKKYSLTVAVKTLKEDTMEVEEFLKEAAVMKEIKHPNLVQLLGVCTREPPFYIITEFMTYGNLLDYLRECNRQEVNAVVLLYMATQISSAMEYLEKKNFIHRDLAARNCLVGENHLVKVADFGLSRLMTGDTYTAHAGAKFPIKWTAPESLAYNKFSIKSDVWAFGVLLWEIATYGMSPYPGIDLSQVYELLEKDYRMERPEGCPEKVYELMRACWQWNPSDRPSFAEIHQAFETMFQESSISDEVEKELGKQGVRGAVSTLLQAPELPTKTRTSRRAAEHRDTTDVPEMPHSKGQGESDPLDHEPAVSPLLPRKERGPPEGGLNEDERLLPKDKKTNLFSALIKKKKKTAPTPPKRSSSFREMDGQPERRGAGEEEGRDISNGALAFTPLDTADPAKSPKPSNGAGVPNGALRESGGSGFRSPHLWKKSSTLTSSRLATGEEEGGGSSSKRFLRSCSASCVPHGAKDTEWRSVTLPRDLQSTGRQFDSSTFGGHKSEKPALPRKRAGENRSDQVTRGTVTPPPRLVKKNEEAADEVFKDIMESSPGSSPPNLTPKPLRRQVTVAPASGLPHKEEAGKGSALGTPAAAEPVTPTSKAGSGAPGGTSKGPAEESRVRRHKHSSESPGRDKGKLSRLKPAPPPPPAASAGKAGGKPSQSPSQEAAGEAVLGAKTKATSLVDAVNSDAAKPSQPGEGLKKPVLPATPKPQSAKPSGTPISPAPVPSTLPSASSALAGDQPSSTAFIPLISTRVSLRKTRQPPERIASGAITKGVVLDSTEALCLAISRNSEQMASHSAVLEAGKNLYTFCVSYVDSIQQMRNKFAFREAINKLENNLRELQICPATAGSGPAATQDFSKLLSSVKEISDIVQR
Sequence of CK1δ(h) (human), P48730 (P48730 1-294, stated change not applied): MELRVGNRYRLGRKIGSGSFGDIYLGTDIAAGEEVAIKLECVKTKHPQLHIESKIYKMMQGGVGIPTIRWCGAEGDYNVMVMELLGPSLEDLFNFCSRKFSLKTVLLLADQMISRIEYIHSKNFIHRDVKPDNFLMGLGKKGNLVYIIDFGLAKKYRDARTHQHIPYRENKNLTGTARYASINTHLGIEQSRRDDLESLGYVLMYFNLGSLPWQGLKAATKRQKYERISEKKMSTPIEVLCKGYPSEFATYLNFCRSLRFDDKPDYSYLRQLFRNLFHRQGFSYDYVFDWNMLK
Sequence of PKCβI(h) (human), P05771 (P05771 whole entry): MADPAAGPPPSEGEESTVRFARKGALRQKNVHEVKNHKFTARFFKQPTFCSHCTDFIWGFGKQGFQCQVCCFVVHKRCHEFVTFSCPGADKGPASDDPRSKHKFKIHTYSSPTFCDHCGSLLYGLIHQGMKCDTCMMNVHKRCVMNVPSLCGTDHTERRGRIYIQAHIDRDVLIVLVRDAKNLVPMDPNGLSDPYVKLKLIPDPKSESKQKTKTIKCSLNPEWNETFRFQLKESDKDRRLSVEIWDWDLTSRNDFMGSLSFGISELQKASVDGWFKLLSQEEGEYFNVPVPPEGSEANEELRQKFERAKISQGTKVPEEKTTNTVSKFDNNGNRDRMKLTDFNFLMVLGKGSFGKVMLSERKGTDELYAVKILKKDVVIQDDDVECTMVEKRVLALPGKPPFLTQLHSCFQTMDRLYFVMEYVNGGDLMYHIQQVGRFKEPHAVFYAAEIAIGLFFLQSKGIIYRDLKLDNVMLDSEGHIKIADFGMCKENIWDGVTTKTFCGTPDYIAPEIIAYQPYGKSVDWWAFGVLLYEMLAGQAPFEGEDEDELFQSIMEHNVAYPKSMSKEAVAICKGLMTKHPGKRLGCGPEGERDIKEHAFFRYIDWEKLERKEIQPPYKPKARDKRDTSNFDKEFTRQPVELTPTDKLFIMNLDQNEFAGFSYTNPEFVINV
Sequence of MAPKAP-K3(h) (human), Q16644 (Q16644 whole entry): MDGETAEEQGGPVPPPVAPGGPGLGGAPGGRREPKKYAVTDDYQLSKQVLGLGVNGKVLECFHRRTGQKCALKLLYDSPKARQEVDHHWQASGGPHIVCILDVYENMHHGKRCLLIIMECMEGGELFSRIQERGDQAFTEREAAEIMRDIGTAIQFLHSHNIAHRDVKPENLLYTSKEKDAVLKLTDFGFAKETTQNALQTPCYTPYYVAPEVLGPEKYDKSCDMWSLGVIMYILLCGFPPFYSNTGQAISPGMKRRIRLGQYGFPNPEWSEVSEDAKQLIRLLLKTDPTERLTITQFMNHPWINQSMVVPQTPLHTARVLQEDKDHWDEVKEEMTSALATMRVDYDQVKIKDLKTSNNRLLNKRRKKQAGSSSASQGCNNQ
Sequence of Yes(h) (human), P07947 (P07947 whole entry): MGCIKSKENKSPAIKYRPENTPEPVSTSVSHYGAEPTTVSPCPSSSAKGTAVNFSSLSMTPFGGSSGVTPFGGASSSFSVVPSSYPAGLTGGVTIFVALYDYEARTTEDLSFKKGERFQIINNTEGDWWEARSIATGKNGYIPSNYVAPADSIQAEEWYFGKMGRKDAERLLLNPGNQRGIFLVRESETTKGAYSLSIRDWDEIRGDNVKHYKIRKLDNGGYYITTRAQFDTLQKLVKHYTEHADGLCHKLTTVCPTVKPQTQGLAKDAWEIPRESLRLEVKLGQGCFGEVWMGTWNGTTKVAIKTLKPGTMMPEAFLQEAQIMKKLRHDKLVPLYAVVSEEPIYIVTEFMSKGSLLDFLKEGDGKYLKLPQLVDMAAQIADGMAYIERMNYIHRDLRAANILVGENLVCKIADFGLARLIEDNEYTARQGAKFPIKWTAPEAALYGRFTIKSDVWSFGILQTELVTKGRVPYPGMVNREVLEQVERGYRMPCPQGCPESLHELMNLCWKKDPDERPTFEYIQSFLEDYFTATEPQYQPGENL
Sequence of MAPKAP-K2(h) (human), P49137 (P49137 46-400 limits assumed): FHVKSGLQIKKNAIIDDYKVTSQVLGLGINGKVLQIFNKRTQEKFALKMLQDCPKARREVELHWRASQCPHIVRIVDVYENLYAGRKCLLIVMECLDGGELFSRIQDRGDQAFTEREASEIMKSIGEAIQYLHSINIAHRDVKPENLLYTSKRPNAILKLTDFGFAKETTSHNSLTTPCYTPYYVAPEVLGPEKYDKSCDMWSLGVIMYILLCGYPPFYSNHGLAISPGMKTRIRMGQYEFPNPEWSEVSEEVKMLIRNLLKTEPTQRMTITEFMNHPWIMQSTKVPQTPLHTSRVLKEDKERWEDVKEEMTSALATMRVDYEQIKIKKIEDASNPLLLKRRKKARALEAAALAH

B1: MMI-0300 (peptide)
peptide: FAKLAARLYRKALARQLGVAA
Regarding B1, the % activity, 100 µM is 10% in experiment [1]; 101% in experiment [2]; 64% in experiment [3]; 1% in experiment [4]; 92% in experiment [5]; 78% in experiment [6].

B2: MMI-0400 (peptide)
peptide: KAFAKLAARLYRKALARQLGVAA
As for B2, the % activity, 100 µM in [1] is 17%; in experiment [2] it was 105%; in [3], 58%; in [4] it was 2%; in experiment [5] it was 93%; in experiment [6], 78%.

B3: MMI-0100 (peptide)
peptide: YARAAARQARAKALARQLGVAA
modifications: not checked
Usually % inhibition stands for the percentage by which the read-out fell short of the control. As for B3, the % inhibition in experiment [7], in [8], in [9], in experiment [10], in experiment [11] and in experiment [12] was < 30% in each case. Besides, the % inhibition in [13] and in experiment [14] was < 30% each time. In addition, the IC50 (kinase activity) in experiment [15] stood at 174 µM; in experiment [16], 15.8 µM; in [1], 45.8 µM; in experiment [17] it was 47.6 µM; in [18] it was 128 µM; in experiment [19] it was 172 µM. For the same molecule, the IC50 (kinase activity) in [20] is 71.7 µM; in experiment [21], 12.1 µM; in experiment [22] it was 114 µM; in experiment [23] it was 78.3 µM; in experiment [24] it was 181 µM; in [25], 34.1 µM. Moreover, the IC50 (kinase activity) in [26] amounted to 102 µM; in experiment [27], 141 µM; in experiment [28], 11.7 µM; in [29] it was 4.6 µM.
